# Experimental data from US20220160843A1 (priority 2019, published 2022).
# B1: GN13: Native lysin, GenBank YP_00638255.1, SEQ ID NO: 23 (protein)
# chain: MSDKRVEITGNVSGFFESGGRGVKTVSTGKGDNGGVSYGKHQLASNNGSMALFLESPFGAPYRAQFAGLKPGTAAFTSVYNKIANETPTAFERDQFQYIAASHYDPQAAKLKAEGINVDDRHVAVRECVFSVAVQYGRNTSIIIKALGSNFRGSDKDFIEKVQDYRGATVNTYFKSSSQQTRDSVKNRSQQEKQMLLKLLNS
# modifications: Pseudomonas phage Lu11
# B2: GN17: Native lysin, GenBank ACD38663.1, SEQ ID NO: 24 (protein, listed as Pseudomonas aeruginosa)
# chain: MTLRYGDRSQEVRQLQRRLNTWAGANLYEDGHFGAATEDAVRAFQRSHGLVADGIAGPKTLAALGGADCSHLLQNADLVAAATRLGLPLATIYAVNQVESNGQGFLGNGKPAILFERHIMYRRLAAHDQVTADQLAAQFPALVNPRPGGYAGGTAEHQRLANARQIDDTAALESASWGAFQIMGFHWQRLGYISVQAFAEAMGRSESAQFEAFVRFIDTDPALHKALKARKWADFARLYNGPDYKRNLYDNKLARAYEQHANCAEASA
# B3: GN121: Modified GN37, C-terminal peptide RKKTRKRLKKIGKVLKWI, SEQ ID NO: 13 (protein)
# chain: MTYTLSKRSLDNLKGVHPDLVAVVHRAIQLTPVDFAVIEGLRSVSRQKELVAAGASKTMNSRHLTGHAVDLAAYVNGIRWDWPLYDAIAVAVKAAAKELGVAIVWGGDWTTFKDGPHFELDRSKYRRKKTRKRLKKIGKVLKWI
# B4: GN3: Native lysin, WP_012273008.1/Lysozyme, SEQ ID NO: 2 (protein, listed as Pseudomonas putida)
# chain: MRTSQRGLSLIKSFEGLRLQAYQDSVGVWTIGYGTTRGVKAGMKISKDQAERMLLNDVQRFEPEVERLIKVPLNQDQWDALMSFTYNLGAANLESSTLRRLLNAGNYAAAAEQFPRWNKAGGQVLAGLTRRRAAERELFLGAA
# Assays:
# [1] = tested on: P. aeruginosa strain ATCC 17647; assay: Minimal Biofilm Eradicating Concentration (MBEC), Calgary Biofilm Device; assay type: cell-based, Pseudomonas aeruginosa; conditions: 24 h biofilm, 24 h treatment; minimum concentration removing >95% of biofilm biomass (crystal violet)
# From the text: All samples were examined in triplicate.
# [2] = tested on: P. aeruginosa; assay: Minimal inhibitory concentration (MIC), modified CLSI broth microdilution in CAA or CAA/HuS; assay type: cell-based, Pseudomonas aeruginosa; conditions: for MIC (μg/mL) in CAA: CAA media; for MIC (μg/mL in CAA/HuS) / MIC value in CAA/HuS: CAA supplemented with 25% human serum
# [3] = tested on: human erythrocytes; assay type: cell-based
# Description: The hemolytic activity of the GN lysins was measured as the amount of hemoglobin released by the lysis of human erythrocytes (30). Briefly, 3 ml of fresh human blood cells (hRBCs) obtained from pooled healthy donors (BioreclamationIVT) in a polycarbonate tube containing heparin was centrifuged at 1,000×g for 5 min at 4° C. The erythrocytes obtained were washed three times with phosphate-buffered saline (PBS) solution (pH 7.2) and resuspended in […]. […] Intact erythrocytes were pelleted by centrifugation at 1,000×g for 5 min at 4° C., and the supernatant was transferred to a new 96-well plate. The release of hemoglobin was monitored by measuring the absorbance at 570 nm.
# [4] = tested on: P. aeruginosa; assay: Time-kill assay of GN lysin activity; assay type: cell-based, Pseudomonas aeruginosa; conditions: for bactericidal activity in the time-kill assay format: 3-hour timepoint, 10 μg/mL, in either CAA/HuS or HEPES buffer; for Log10 CFU/mL T = 3 hr / Log10 CFU/mL T = l hr: lysin 10 μg/mL, T = 0 7.8; for Log10 CFU/mL T = 3 hr: buffer control 7.2, limit of detection 3.7; for Log10 CFU/mL T = l hr: buffer control 7.7
# Description: All treatments were incubated at 37° C. with aeration.
# [5] = tested on: carbapenem-resistant P. aeruginosa strains; assay: Resensitization of carbapenem-resistant clinical strains using carbapenems in combination with lysins; assay type: cell-based
# Description: (§1) The checkerboard assays is based on a modification of the CLSI method for MIC determination by broth microdilution (26, 29). Checkerboards were constructed by first preparing columns of a 96-well polypropylene microtiter plate, in which each well had the same amount of antibiotic diluted 2-fold along the horizontal axis. […] Summation fractional inhibitory concentrations (ΣFICs) were calculated for each drug and the minimum ΣFIC value (ΣFICmin) was used to determine synergy. ΣFICs were calculated as follows: ΣFIC=FIC A+FIC B, where FIC A is the MIC of each antibiotic in the combination/MIC of each antibiotic alone, and FIC B is the MIC of each GN lysin in the combination/MIC of each GN lysin alone. The combination is considered synergistic when the ΣFIC is ≤0.5, strongly additive when the ΣFIC is >0.5 to <1, additive with the ΣFIC is 1−<2, and antagonistic when the ΣFIC is ≥2.
# Up to seven carbapenem-resistant isolates were assessed. […] See Clinical and Laboratory Standards Institute (CLSI), CLSI. […] M100 Performance Standards for Antimicrobial Susceptibility Testing; 29th Edition. Clinical and Laboratory Standards Institute, Wayne, Pa.
# [6] = tested on: carbapenem-resistant clinical strain, WC-452; assay: Checkerboard assay to examine synergy with antibiotics in CAA/HuS; assay type: cell-based, P. aeruginosa
# Description: Fractional inhibitor concentration index (FICI) values were determined for all combinations; values of <0.5 indicate synergy.
# as §1
# [7] = CAA/HuS, ‡ indicates bactericidal activity
# [8] = HEPES buffer, ‡ indicates bactericidal activity
molecule,measurement,setting,value
B1,MBEC,[1],0.125 µg/mL
same,MIC (μg/mL) in CAA,[2],8 µg/mL
same,MIC (μg/mL in CAA/HuS),[2],>128 µg/mL
same,hemolytic activity,[3],no hemolytic activity whatsoever
B2,MBEC,[1],0.125 µg/mL
same,bactericidal activity in the time-kill assay format,[4],bactericidal activity
same,Log10 CFU/mL T = 3 hr,[4]; [7],4.2‡ Log10 CFU/mL
same,Log10 CFU/mL T = l hr,[4]; CAA/HuS,6.4 Log10 CFU/mL
same,Log10 CFU/mL T = 3 hr,[4]; [8],<3.7‡ Log10 CFU/mL
same,Log10 CFU/mL T = l hr,[4]; [8],5.4 Log10 CFU/mL
same,MIC (μg/mL) in CAA,[2],32 µg/mL
same,MIC (μg/mL in CAA/HuS),[2],16 µg/mL
same,hemolytic activity,[3],no hemolytic activity whatsoever
B3,GN121 Alone,"[5]; isolate PA19, MIC of GN121 alone (imipenem checkerboard)",1 µg/mL
same,GN121 Alone,"[5]; isolate PA19, MIC of GN121 alone (meropenem checkerboard)",2 µg/mL
same,GN121 Combination,"[5]; isolate PA19, MIC of GN121 in combination with imipenem",0.125 µg/mL
same,GN121 Combination,"[5]; isolate PA19, MIC of GN121 in combination with meropenem",0.5 µg/mL
same,FICI,"[5]; isolate PA19, imipenem + GN121",0.155
same,FICI,"[5]; isolate PA19, meropenem + GN121",0.281
same,GN121 Alone,"[5]; isolate PA20, MIC of GN121 alone (imipenem checkerboard)",1 µg/mL
same,GN121 Alone,"[5]; isolate PA20, MIC of GN121 alone (meropenem checkerboard)",2 µg/mL
same,GN121 Combination,"[5]; isolate PA20, MIC of GN121 in combination with imipenem",0.25 µg/mL
same,GN121 Combination,"[5]; isolate PA20, MIC of GN121 in combination with meropenem",0.5 µg/mL
same,FICI,"[5]; isolate PA20, imipenem + GN121",0.265
same,FICI,"[5]; isolate PA20, meropenem + GN121",0.313
same,GN121 Alone,"[5]; isolate PA21, MIC of GN121 alone (imipenem checkerboard)",1 µg/mL
same,GN121 Alone,"[5]; isolate PA21, MIC of GN121 alone (meropenem checkerboard)",1 µg/mL
same,GN121 Combination,"[5]; isolate PA21, MIC of GN121 in combination with imipenem",0.125 µg/mL
same,GN121 Combination,"[5]; isolate PA21, MIC of GN121 in combination with meropenem",0.125 µg/mL
same,FICI,"[5]; isolate PA21, imipenem + GN121",0.155
same,FICI,"[5]; isolate PA21, meropenem + GN121",0.188
same,GN121 Alone,"[5]; isolate PA22, MIC of GN121 alone (imipenem checkerboard)",2 µg/mL
same,GN121 Alone,"[5]; isolate PA22, MIC of GN121 alone (meropenem checkerboard)",1 µg/mL
same,GN121 Combination,"[5]; isolate PA22, MIC of GN121 in combination with imipenem",0.25 µg/mL
same,GN121 Combination,"[5]; isolate PA22, MIC of GN121 in combination with meropenem",0.25 µg/mL
same,FICI,"[5]; isolate PA22, imipenem + GN121",0.188
same,FICI,"[5]; isolate PA22, meropenem + GN121",0.313
same,GN121 Alone,"[5]; isolate PA23, MIC of GN121 alone (imipenem checkerboard)",1 µg/mL
same,GN121 Alone,"[5]; isolate PA23, MIC of GN121 alone (meropenem checkerboard)",2 µg/mL
same,GN121 Combination,"[5]; isolate PA23, MIC of GN121 in combination with imipenem",0.25 µg/mL
same,GN121 Combination,"[5]; isolate PA23, MIC of GN121 in combination with meropenem",0.5 µg/mL
same,FICI,"[5]; isolate PA23, imipenem + GN121",0.257
same,FICI,"[5]; isolate PA23, meropenem + GN121",0.375
same,GN121 Alone,"[5]; isolate PA24, MIC of GN121 alone (imipenem checkerboard)",1 µg/mL
same,GN121 Alone,"[5]; isolate PA24, MIC of GN121 alone (meropenem checkerboard)",1 µg/mL
same,GN121 Combination,"[5]; isolate PA24, MIC of GN121 in combination with imipenem",0.125 µg/mL
same,GN121 Combination,"[5]; isolate PA24, MIC of GN121 in combination with meropenem",0.125 µg/mL
same,FICI,"[5]; isolate PA24, imipenem + GN121",0.155
same,FICI,"[5]; isolate PA24, meropenem + GN121",0.156
same,GN121 Alone,"[5]; isolate WC-452, MIC of GN121 alone (meropenem checkerboard)",1 µg/mL
same,GN121 Combination,"[5]; isolate WC-452, MIC of GN121 in combination with meropenem",0.06 µg/mL
same,FICI,"[5]; isolate WC-452, meropenem + GN121",0.123
same,resensitization of carbapenem-resistant isolates to IPM and MEM,"[5]; synergistic combinations with imipenem or meropenem, breakpoints ≤2 sensitive, 4 intermediate, ≥8 resistant",reductions of IPM and MEM MICS to below breakpoint values
same,synergy with antibiotics in the checkerboard assay,[6],synergize with a range of antibiotics
same,"FICI, Amikacin",[6]; lysin + amikacin,0.375
same,"FICI, Azithromycin",[6]; lysin + azithromycin,0.188
same,"FICI, Aztreonam",[6]; lysin + aztreonam,0.625
same,"FICI, Ciprofloxacin",[6]; lysin + ciprofloxacin,0.313
same,"FICI, Colistin",[6]; lysin + colistin,0.375
same,"FICI, Fosfomycin",[6]; lysin + fosfomycin,0.375
same,"FICI, Gentamicin",[6]; lysin + gentamicin,0.375
same,"FICI, Imipenem",[6]; lysin + imipenem,0.375
same,"FICI, Meropenem",[6]; lysin + meropenem,0.313
same,"FICI, Piperacillin",[6]; lysin + piperacillin,0.375
same,"FICI, Rifampicin",[6]; lysin + rifampicin,0.313
same,"FICI, Tobramycin",[6]; lysin + tobramycin,0.188
same,MBEC,[1],0.25 µg/mL
same,Log10 CFU/mL T = 3 hr,[4]; [7],<3.7‡ Log10 CFU/mL
same,Log10 CFU/mL T = l hr,[4]; CAA/HuS,7.4 Log10 CFU/mL
same,Log10 CFU/mL T = 3 hr,[4]; [8],<3.7‡ Log10 CFU/mL
same,Log10 CFU/mL T = l hr,[4]; [8],<3.7‡ Log10 CFU/mL
same,MIC (μg/mL) in CAA,[2],0.5 µg/mL
same,MIC (μg/mL in CAA/HuS),[2],0.5 µg/mL
same,MIC value in CAA/HuS,[2],0.5 µg/mL
B4,MBEC,[1],0.25 µg/mL
same,bactericidal activity in the time-kill assay format,[4],bactericidal activity
same,Log10 CFU/mL T = 3 hr,[4]; [7],<3.7‡ Log10 CFU/mL
same,Log10 CFU/mL T = l hr,[4]; CAA/HuS,5.8 Log10 CFU/mL
same,Log10 CFU/mL T = 3 hr,[4]; [8],<3.7‡ Log10 CFU/mL
same,Log10 CFU/mL T = l hr,[4]; [8],<3.7‡ Log10 CFU/mL
same,MIC (μg/mL) in CAA,[2],16 µg/mL
same,MIC (μg/mL in CAA/HuS),[2],16 µg/mL
same,MIC value in CAA/HuS,[2],16 µg/mL
same,hemolytic activity,[3],no hemolytic activity whatsoever
